Results reported in patent EP1906184A1 (KYOWA HAKKO KOGYO CO., LTD., dated 2008).
Where a chain is given by its changes, count along the chain named.

B1: anti-human VEGF receptor Flt-1 human chimeric antibody KM2550 (antibody, V domains shown)
VH: QAFLQQSGAELVRPGASVKMSCKASGYTFINYNMHWVKQTPRQGLEWIGAIFPGNGFTSYNQKFKGKATLTVDKSSSTVYMQLRSLTSEDSAVYFCARDGDYYFDYWGQGTTLTVSS
VL: QIVLTQSPAIMSASLGEEITLTCSASSSVSYMHWYQQKSGTSPKLLIYRTSNLASGVPFRFSGSGSGTFYSLTISSVEAEDAADYYCHQWSMYTFGGGTKLEIK
B2: anti-human VEGF receptor Flt-1 human chimeric antibody KM2532 (antibody, V domains shown)
VH: QGQMQQSGAELVKPGASVKLSCKPSGFTFSSNYISWLKQKPGQSLEWIAWIYAGTGDASYNQKFTAKAHVTVDTSSSTAYMQLSSLTTEDSAIYYCARHGGDGYWFAYWGQGTLVTVSA
VL: QLVLTQSPAIMSASQGEKVTMTCSASSSVSYMHWYQQKSGTSPKRWIYDTSKLPSGVPARFSGSGSGTSYSLTISSMEAEDAATYYCQQWSSNPPTFGAGTKLELK
B3: anti-human VEGF receptor Flt-1 human CDR-grafted antibody KM8550 (antibody, V domains shown)
VH: QVQLVQSGAEVKKPGASVKVSCKASGYTFINYNMHWVRQAPGQGLEWMGAIFPGNGFTSYNQKFKGRVTITVDKSTSTAYMELSSLRSEDTAVYYCARDGDYYFDYWGQGTLVTVSS
VL: DIQMTQSPSSLSASVGDRVTITCSASSSVSYMHWYQQKPGKAPKLLIYRTSNLASGVPSRFSGSGSGTDFTLTISSLQPEDFATYYCHQWSMYTFGQGTKVEIK
notes: Human CDR-grafted IgG; also called 1750HV0 + 1750LV0(I); pKANTEX1750HV0LV0(I)
B4: anti-human VEGF receptor Flt-1 human CDR-grafted antibody KM8551 (antibody, V domains shown)
VH: B3 VH
VL: DIVMTQSPDSLAVSLGERATINCSASSSVSYMHWYQQKPGQPPKLLIYRTSNLASGVPDRFSGSGSGTDFTLTISSLQAEDVAVYYCHQWSMYTFGQGTKVEIK
notes: Human CDR-grafted IgG; also called 1750HV0 + 1750LV0(IV); pKANTEX1750HV0LV0(IV)
B5: anti-human VEGF receptor Flt-1 human CDR-grafted antibody KM8553 (antibody, V domains shown)
VH: B3 VH with E82Q, S84R, Y95F
VL: B4 VL
notes: Human CDR-grafted IgG with modified FR in VH; also called 1750HV3 + 1750LV0(IV); pKANTEX1750HV3LV0(IV)
B6: anti-human VEGF receptor Flt-1 human CDR-grafted antibody KM8552 (antibody, V domains shown)
VH: B3 VH with E82Q, S84R, Y95F
VL: B3 VL
notes: Human CDR-grafted IgG with modified FR in VH; also called 1750HV3 + 1750LV0(I); pKANTEX1750HV3LV0(I)
B7: anti-human VEGF receptor Flt-1 human CDR-grafted antibody KM8554 (antibody, V domains shown)
VH: B3 VH
VL: B3 VL with D17E, R18E, D69F, F70Y
notes: Human CDR-grafted IgG with modified FR in VL; also called 1750HV0 + 1750LV4; pKANTEX1750HV0LV4
B8: anti-human VEGF receptor Flt-1 human CDR-grafted antibody KM8555 (antibody, V domains shown)
VH: B3 VH with E82Q, S84R, Y95F
VL: B3 VL with D17E, R18E, D69F, F70Y
notes: Human CDR-grafted IgG with modified FR in VH and VL; also called 1750HV3 + 1750LV4; pKANTEX1750HV3LV4
B9: anti-human VEGF receptor Flt-1 mouse monoclonal antibody KM1750 (antibody, V domains shown)
VH: B1 VH
VL: B1 VL
notes: Mouse IgG2b from hybridoma KM1750 (FERM BP-5700)
B10: anti-human VEGF receptor Flt-1 mouse monoclonal antibody KM1732 (antibody, V domains shown)
VH: B2 VH
VL: B2 VL
notes: Mouse IgG1 from hybridoma KM1732 (FERM BP-5698); also called anti-human Flt-1 monoclonal antibody KM1732

biological target: T1, soluble human VEGF receptor KDR 7N (human, UniProt P35968 20-757); assay: ELISA, receptor coated at 4 µg/ml, antibody concentration varied
T1 construct: range 1-738; The range 1-738 counts on the mature protein, not on the precursor; Expressed in High Five insect cells (purity 70 to 80%); not shown: two amino acid residues derived from a linker
T1 sequence (P35968 20-757): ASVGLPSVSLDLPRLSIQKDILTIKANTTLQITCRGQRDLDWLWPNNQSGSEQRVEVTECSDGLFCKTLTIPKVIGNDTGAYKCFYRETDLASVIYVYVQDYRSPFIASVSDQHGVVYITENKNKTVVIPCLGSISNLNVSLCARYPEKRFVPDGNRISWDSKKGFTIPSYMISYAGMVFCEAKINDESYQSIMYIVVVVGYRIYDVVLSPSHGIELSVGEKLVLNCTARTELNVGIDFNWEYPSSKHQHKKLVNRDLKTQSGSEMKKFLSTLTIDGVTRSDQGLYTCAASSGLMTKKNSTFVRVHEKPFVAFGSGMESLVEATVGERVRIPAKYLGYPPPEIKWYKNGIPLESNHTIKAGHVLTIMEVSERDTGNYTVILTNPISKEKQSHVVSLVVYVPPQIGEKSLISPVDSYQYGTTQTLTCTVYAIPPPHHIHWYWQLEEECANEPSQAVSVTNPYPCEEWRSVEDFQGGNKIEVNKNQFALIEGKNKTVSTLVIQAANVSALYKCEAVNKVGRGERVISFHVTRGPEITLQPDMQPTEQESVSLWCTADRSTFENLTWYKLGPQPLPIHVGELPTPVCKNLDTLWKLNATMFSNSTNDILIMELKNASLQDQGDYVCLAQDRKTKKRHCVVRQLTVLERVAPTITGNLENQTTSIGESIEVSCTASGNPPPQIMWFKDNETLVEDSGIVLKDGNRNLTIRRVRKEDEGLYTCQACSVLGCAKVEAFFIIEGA

Row | binding result | Binder
1 | no binding (tested: 0.0152 to 100 ng/ml) | B1
2 | no binding (tested: 0.0152 to 100 ng/ml) | B2

biological target: T1, soluble human VEGF receptor KDR 7N; assay: ELISA, receptor coated at 10 µg/ml (3-fold dilutions)

Row | binding result | Binder
3 | no binding (tested: 5 µg/ml) | B3
4 | no binding (tested: 5 µg/ml) | B4
5 | no binding (tested: 5 µg/ml) | B5
6 | no binding (tested: 5 µg/ml) | B6
7 | no binding (tested: 5 µg/ml) | B7
8 | no binding (tested: 5 µg/ml) | B8

biological target: T1, soluble human VEGF receptor KDR 7N; assay: ELISA, receptor coated at 4 µg/ml

Row | binding result | Binder
9 | no binding (tested: 0.1 µg/ml) | B9
10 | no binding (tested: 0.1 µg/ml) | B10
